Source: patent US20200172626A1 (EUTILEX, published 2020)
Where a chain is given by its changes, count along the chain named.

B1: 94KVT (full length 94KVT/w antibody) (antibody, human IgG1)
heavy: not shown
VL: DIVMTQSPAFLSVTPGEKVTITCRASQTISDYLHWYQQKPDQAPKLLIKYASQSISGIPSRFSGSGSGTDFTFTISSLEAEDAATYYCQDGHSWPPTFGQGTKLEIK
notes: Full length IgG1
B2: EU101 (antibody, human IgG1, L234A L235A)
heavy: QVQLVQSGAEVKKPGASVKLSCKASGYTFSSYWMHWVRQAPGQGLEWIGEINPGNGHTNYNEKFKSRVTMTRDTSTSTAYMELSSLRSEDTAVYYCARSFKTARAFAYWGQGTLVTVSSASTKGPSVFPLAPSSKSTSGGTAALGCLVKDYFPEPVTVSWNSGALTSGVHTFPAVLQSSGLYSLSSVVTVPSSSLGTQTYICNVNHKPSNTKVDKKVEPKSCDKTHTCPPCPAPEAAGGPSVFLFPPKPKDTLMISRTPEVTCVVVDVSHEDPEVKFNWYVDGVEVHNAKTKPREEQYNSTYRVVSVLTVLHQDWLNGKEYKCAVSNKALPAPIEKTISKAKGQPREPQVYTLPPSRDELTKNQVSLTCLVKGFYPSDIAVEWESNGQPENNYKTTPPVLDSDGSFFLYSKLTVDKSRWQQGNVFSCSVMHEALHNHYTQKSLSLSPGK
VL: B1 VL
notes: Full length antibody with the 94KVT/w variable domains and a variant IgG1 constant domain; The light chain constant domain is not tied to EU101; also called exemplary humanized anti-4-1BB antibody; exemplary anti-human 4-1BB antibody (EU101)
B3: 94/w Fab antibody (Fab, V domains shown)
VH: QVQLQQSGAEVKKPGASVKLSCKASGYTFSSYWMHWVRQAPGQGLEWIGEINPGNGHTNYNEKFKSRATMTRDTSTSTAYMELSSLRSEDSAVYYCARSFTTARAFAYWGQGTLVTVSS
VL: B1 VL
notes: Fab expressed in E. coli TG1 from a pComb3H-derived vector and tested as culture supernatant; also called 941w
B4: 94G1 reference humanized anti-human 4-1BB antibody (antibody, V domains shown)
VH: B3 VH
VL: B1 VL with W94F

Columns and labels:
[1] = biological target: T1, human 4-1BB expressed on cells (human, UniProt Q07011 24-255); assay: cell-based or functional assay
T1 sequence (Q07011 24-255 limits assumed): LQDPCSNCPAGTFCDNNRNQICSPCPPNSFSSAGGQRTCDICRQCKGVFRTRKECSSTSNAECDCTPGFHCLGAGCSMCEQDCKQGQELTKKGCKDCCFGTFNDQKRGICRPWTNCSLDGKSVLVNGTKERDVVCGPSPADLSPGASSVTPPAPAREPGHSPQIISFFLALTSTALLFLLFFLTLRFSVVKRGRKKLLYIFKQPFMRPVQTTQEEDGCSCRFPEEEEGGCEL

[2] = biological target: T1, human 4-1BB expressed on cells; assay: FACS on anti-CD3-activated human CD8+ T cells, antibody at 25 ng/ml
Protocol: CD8⁺ T cells were isolated from human PBMCs and activated with 1 μg/ml anti-CD3 antibody for 2 day. The ability of exemplary humanized anti-human 4-1BB antibodies (94K, 94 KV, 94KVT and EU101) described in Example 1 to detect a 4-1BB on the surface of activated […] T cells was assessed relative to an exemplary commercially available anti-4-1BB antibody (4-1BB-PE). Also shown is detection with a BBK-4 a murine anti-human 4-1BB antibody and a 94G1 reference humanized antibody. Treatment with 4-1BB antibodies was at a concentration of 25 ng/ml.
Exemplary antibodies were detected with an anti-mIgG-Dylight488 or anti-hIgG-Dylight488 as appropriate, and analyzed by FACS.

[3] = biological target: T2, GST-4-1BB ECD fragment R2 fusion polypeptide (human, UniProt Q07011 76-130); assay: western blot on GST fusion polypeptides
T2 construct: not shown: GST carrier at the N end (pGEX-6T, 27 kDa) and the vector-derived junction residues
Protocol: Purified protein samples were obtained from transformed bacterial cells by a lysis buffer (e.g., 10 mM Tris-HCl—pH 7.4, 50 mM NaCl, 5 mM EDTA, 30 mM NaF, 0.1 mM Na3VO4, 1% Triton X-100, 0.5% Nonidet P-40, 1 mM PMSF, and protease inhibitor mixture). Approximately 20 μg of each fusion polypeptide sample was diluted in a 4×SDS sample buffer, subjected to electrophoresis on SDS-PAGE gels, and then transferred to nitrocellulose membranes (Millipore, Bedford, Mass.). On the cellulose membranes, anti-human 4-1BB mAb was reacted with anti-mouse IgG horseradish […] (HRP). Binding antibodies were recognized by enhanced chemiluminescence (ECL) (Amersham Pharmacia Biotech, Little Chalfont, UK).
As described above and shown in FIG. 1B, when each of three non-overlapping H4-1BB ECD fragment-GST fusion polypeptides, R1, R2, and R3, were treated with GST-binding, respectively. It was determined that an exemplary humanized anti-4-1BB antibody encompassed by the present disclosure (EU101) binds to an N-terminal fragment construct (R1) fusion construct of approximately 32 kDa (amino acids 1 to 55 of 4-1BB) by western blotting.

[4] = biological target: T3, GST-4-1BB ECD fragment R1.1 fusion polypeptide (human, UniProt Q07011 21-65); assay: western blot on E. coli whole cell extracts (FIG. 2B)
T3 construct: not shown: GST carrier at the N end (pGEX-6T, 27 kDa) and the vector-derived junction residues
T3 chain: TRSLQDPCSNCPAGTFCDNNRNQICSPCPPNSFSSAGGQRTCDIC
Protocol: (§1) FIG. 2A depicts an SDS-PAGE gel of whole cell extracts from cells expressing 4-1BB ECD fusion constructs. Fusion constructs as described above in FIG. 2A were expressed in E. coli BL21 cells induced with 1 mM IPTG, and whole cell extracts resolved by 12% SDS-PAGE. As shown, all fusion constructs (ECD, R1, R1.1, R1.2, R1.3, R1.4, R1.5, and R1.6) have robust protein expression. FIG. 2B depicts a western blot showing binding of an exemplary humanized anti-4-1BB antibody to full length 4-1BB ECD fusion polypeptide, and R1.1, R1.2, R1.3, and R1.6 fusion polypeptides, but not to the R1.4 or R1.5 fusion polypeptides. Immunoblots were performed with an exemplary anti-human 4-1BB antibody. Molecular size markers are indicated in kDa on the left.
(§2) SDS-PAGE was transferred to a nitrocellulose membrane and immunoblotting was performed using an exemplary anti-human 4-1BB antibody, EU101. […] It was also confirmed that a sequence including amino acids 35 to 50 of the 4-1BB extracellular domain is […] for binding an exemplary humanized antibody described herein (FIG. 2B).

[5] = biological target: T4, GST-4-1BB ECD fragment R1.2 fusion polypeptide (human); assay: as above
T4 construct: not shown: GST carrier at the N end (pGEX-6T, 27 kDa) and the vector-derived junction residues
T4 chain: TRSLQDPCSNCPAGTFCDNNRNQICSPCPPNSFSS
Protocol: as §1, §2

[6] = biological target: T5, GST-4-1BB ECD fragment R1.3 fusion polypeptide (human, UniProt Q07011 31-75); assay: as above
T5 construct: not shown: GST carrier at the N end (pGEX-6T, 27 kDa) and the vector-derived junction residues
T5 chain: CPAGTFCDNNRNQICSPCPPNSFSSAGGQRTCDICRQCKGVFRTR
Protocol: as §1, §2

[7] = biological target: T6, GST-4-1BB ECD fragment R1.6 fusion polypeptide (human, N-terminal GST fusion, not written); assay: as above
T6 construct: not shown: GST carrier at the N end (27 kDa, pGEX-6T) and the vector-derived residues at the BamHI/XhoI junctions
T6 chain: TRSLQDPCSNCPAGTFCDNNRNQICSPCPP
Protocol: as §1, §2

[8] = biological target: T7, GST-4-1BB ECD fragment R1.4 fusion polypeptide (human); assay: western blot on E. coli whole cell extracts with GST fusion polypeptides
T7 construct: not shown: GST carrier at the N end (pGEX-6T, 27 kDa) and the vector-derived junction residues
T7 chain: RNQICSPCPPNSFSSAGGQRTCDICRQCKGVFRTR
Protocol: as §1, §2

[9] = biological target: T8, human 4-1BB antigen (H4-1BB) (human, UniProt Q07011 24-186, limits assumed); assay: SPR (Biacore 3000, CM5 chip), antibody captured on immobilized anti-human IgG, human 4-1BB antigen (H4-1BB) flowed over
Excerpt: In vitro binding affinity of exemplary engineered antibody EU101 as described in Example 1, along with that of a reference 94G1 humanized antibody were each determined by Biacore analysis. Anti-human IgG was immobilized on a CM5 chip, and coupled to the Fab antibodies prepared above by flowing over the chip, and ultimately reacted with a human 4-1BB antigen (H4-1BB) to measure the binding activity between the antibody and the antigen (Biacore3000, sensor chip CM5). Ka (1/Ms) and Kd (1/s) values represent how fast an antibody associates with and dissociates from an antigen, respectively. A dissociation constant (KD) is obtain by dividing Kd by Ka (Kd/Ka=[…]).

[10] = biological target: T8, human 4-1BB antigen (H4-1BB); assay: ELISA of Fab in E. coli supernatant, binding divided by expression level; data not shown
Protocol: ELISA was performed the following day on a supernatant obtained by centrifugation at 12,000 rpm for 10 minutes at 4° C.
A Fab antibody prepared by substituting the constant heavy chain of pCOM-Fab94G1-L with the heavy chain of the backbone 94G1 on the improved 94G1 light chain was called 94/w. Thus, a 94/w variant includes an improved 94G1 light chain in which the 6th amino acid of LCDR3 is substituted with tryptophan (W) ([…]—SEQ ID NO: 4) and a 94G1 heavy chain. IPTG-induced expression in E. coli and ELISA of a 94/w Fab was used to determine binding affinity as described above. Using this method, it was determined that a 94/w Fab antibody has a binding activity 3.5 times higher than that of 94G1 (Fab antibody) (data not shown).

| Binder | IFNgamma secretion by anti-CD3-treated CD8+ T cells, 1.0 ug/ml antibody, day 5, against the control group [1] [fold] | percent of CD8+ T cells on which 4-1BB was detected [2] [%] | binding result [3] | binding result [4] | binding result [5] | binding result [6] | binding result [7] | binding result [8] | Kd [9] [nM] | koff [9] [s⁻¹] | binding activity as fold of 94G1 (Fab antibody) [10] [fold] |
| --- | --- | --- | --- | --- | --- | --- | --- | --- | --- | --- | --- |
| B1 | 13 | 25.3 | – | – | – | – | – | – | – | – | – |
| B2 | 13 | 28.3 | no binding | binds | binds | binds | binds | no binding | 0.0636 | 1.8e-05 | – |
| B3 | – | – | – | – | – | – | – | – | – | – | 3.5 |
| B4 | – | 17.9 | – | – | – | – | – | – | 0.602 | 0.000118 | – |
